# In paper PMC4224565 (Molecular Pharmaceutics, 2014):
# Tests used:
# dipeptidyl-peptidase-IV = conditions: degraded by dipeptidyl-peptidase-IV via cleavage of two N-terminal residues; cited from earlier work
# INS-1 tumor mice = assay: Ex vivo biodistribution in INS-1 tumor mice; set-up: species or system mouse; conditions: control group, dissected tissue, γ-counter, 2 h post injection, n = 5, mean ± SD
INS-1 tumor uptake (biodistribution) (INS-1 tumor mice),Compound,half-life in vivo (dipeptidyl-peptidase-IV)
–,GLP-1: glucose-dependent hormone released mainly from the small intestine,less than 2 min
23.06 ± 3.87%ID/g,"O=C(NCCN1C(=O)C=CC1=O)c1ccc(F)nc1 [[^18F]FNEM, N-(2-(2,5-Dioxo-2,5-dihydro-1H-pyrrol-1-yl)ethyl)-6-fluoronicotinamide]",–
